T1: CD133 (human, UniProt O43490 20-865)
T1 construct: whole, on cells; also called CD133 molecule
T1 sequence (looked up): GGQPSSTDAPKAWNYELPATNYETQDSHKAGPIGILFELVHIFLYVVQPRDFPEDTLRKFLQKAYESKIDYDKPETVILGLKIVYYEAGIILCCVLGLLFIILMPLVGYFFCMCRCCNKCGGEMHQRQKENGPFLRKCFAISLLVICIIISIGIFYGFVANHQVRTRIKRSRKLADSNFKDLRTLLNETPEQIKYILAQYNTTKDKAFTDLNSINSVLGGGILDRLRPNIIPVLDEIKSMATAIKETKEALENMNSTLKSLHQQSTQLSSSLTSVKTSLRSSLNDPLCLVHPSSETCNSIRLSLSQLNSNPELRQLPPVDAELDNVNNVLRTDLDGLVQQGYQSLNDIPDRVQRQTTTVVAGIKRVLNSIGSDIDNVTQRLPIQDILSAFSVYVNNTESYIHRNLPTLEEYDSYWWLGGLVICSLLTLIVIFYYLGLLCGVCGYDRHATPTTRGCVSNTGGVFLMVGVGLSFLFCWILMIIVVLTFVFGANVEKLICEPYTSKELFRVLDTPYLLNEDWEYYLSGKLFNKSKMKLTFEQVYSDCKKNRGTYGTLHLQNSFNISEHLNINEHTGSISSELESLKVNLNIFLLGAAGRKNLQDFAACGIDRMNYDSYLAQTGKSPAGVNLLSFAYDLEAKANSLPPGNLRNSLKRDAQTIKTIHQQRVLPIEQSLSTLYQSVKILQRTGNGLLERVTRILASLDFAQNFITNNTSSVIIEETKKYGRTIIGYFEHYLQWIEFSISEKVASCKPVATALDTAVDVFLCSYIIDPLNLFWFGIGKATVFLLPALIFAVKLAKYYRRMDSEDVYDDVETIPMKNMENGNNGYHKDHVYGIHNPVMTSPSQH

B1: GH9 scFv (scFv)
scFv: QVQLQESGGGLVKPGGSLRLSCAASGFTFSSYSMNWVRQAPGQGLEWVSSISSRNSDIYYADSVRGRFTISRDNAKNSLYLQMNSLRAEDTAVYYCARDSSGYSSSPSDYWGQGTLVTVSSGGGGSGGGGSGGGGSNFMLTQPPSVSVAPGKTASLTCGGYNIGTKSVHWYQQKPGQAPVVVVHDDSDRPSGIPERFSGSNSGTTATLTISRVEAGDEADYYCQAWDSISEEVVFGGGTKLTV
notes: On fd phage in FACS; His-tagged soluble scFv in the immunoprecipitation; also called GH9 phage antibody; not shown: lette
B2: GB1 scFv (scFv)
scFv: QVQLVQSGGGLVKPGGSLRLSCAASGFTFSNAWMNWVRQAPGKGLEWVGRIKSKTDGGTTDYAAPVNGRFTISRDDSKNTLYLQMNSLKTEDTAVYSCTTENWGSVNWGQGTLVTVSSGGGGSGGGGSGGGGSNFMLTQPPSVSVAPGKTASLTCGYNIGTKSVHWYQQKPGQAPVVVVHDDSDRPSGIPERFSGSNSGTTATLTISRVEAGDEADYYCQAWDSISEEVVFGGGTKLTV
notes: On fd phage in the Caco-2 FACS; His-tagged soluble scFv in the immunoprecipitation; also called GB1 phage antibody; not shown: lette
B3: GC4 scFv (scFv)
scFv: QVQLVESGGGLVQPGGSLRLSCAASGFTFGTYDMSWVRQAPGKGLEWVSGISGSGGSTYYADSVKGRFTISRDNSKNTVYLQMNSLRVEDTAVYYCARGGWYSDNWGQGTLVTVSSGGGGSGGGGSGGGGSSELTQDPAVSVALGQTVRITCQGGSLRSYYASWYQQKPGQAPLLVIYGENNRPSGIPDRFSGSSSGNTASLTITGAQAEDEADYYCHSRDSSGNHVVFGGGTKLTV
notes: Human scFv from a naive fd phage library; also called GC4 phage antibody; parental GC4 scFv; not shown: lette
B4: GB8 scFv (scFv)
scFv: QVQLVESGGGLVQPGGSLRLSCAASGFTFSNYALTWVRQAPGKGLEWVSAISGSGGSTYYADSVKGRFTISRDTSKNTLYLQMNSLRAEDTAVYYCARGGYSYGPPFDYWGQGTLVTVSSGGGGSGGGGSGGGGSSELTQDPAVSVALGQTVRITCQGDSLRSYYASWYQQKPGQAPVLVIYGKNKRPSGIPDRFSGSSSGNTASLTITGAQAVDEADYHCNSRDSSGNHVVFGGGTKLTV
notes: His-tagged soluble scFv in the immunoprecipitation; also called GB8 phage antibody; not shown: lette

How the values were obtained:
CD133 [1] = molecular target: T1, CD133; assay: FACS, phage on Caco-2 cells
Method: FIG. 3 depicts the results of co-expression of the CD133 epitope and phage-bound antigens. FIG. 3A depicts FITC-labeled phage antibodies and biotin-labeled anti-CD133 mAb were studied on GBM sphere cells. A typical result from studies on GBMx-1 sphere cells is shown. Percentage of total cells is indicated for each quadrant. […] PE-conjugated control mouse IgG and anti-CD133 mAb were incubated with Caoa-2 cells and binding detected by FACS. […] Four tumor sphere cell-targeting phage (GB1, GB8, GH9 and GC4) were tested. Negative control: a non-binding phage. Positive control: a Caco-2 binding phage preparation. FIG. 3D depicts the results of antibody immunoprecipitation of Caco-2 lysates. Lane 1: immunoprecipitation with anti-CD133 mAb. Lane 2: immunoprecipitation with the GC4 antibody. All immunoprecipitation products were analyzed on a SDS-PAGE gel followed by Western blot with anti-CD133 antibody and horseradish peroxidase-conjugated anti-mouse secondary antibody. Arrow indicates CD133. Molecular weights (kd) are indicated.
Phage antibody binding to antigens other than CD133: Caco-2 cells that express high levels of CD133 were incubated with phage antibodies along with the positive control PE-conjugated anti-CD133 antibody at 4° C. for 1 h, washed twice with PBS, and bound phage detected by biotin-labeled anti-fd antibody followed by streptavidin-R-PE, and analyzed by FACS. For immunoprecipitation studies, 10⁵ Caco-2 cells were lysed in 1% NP40, 0.15 M NaCl, and 0.01 M sodium phosphate, pH 7.2, on ice for 2 h. Lysates were precleared and incubated with 50 μg/ml scFvs bearing a hexahistidine tag at 4° C. for 1 h, and captured onto Ni-NTA+ beads (Qiagen). […] All immunoprecipitation products were analyzed by 4-20% gradient SDS-PAGE, followed by Western blot with mouse anti-CD133 followed by horseradish peroxidase-conjugated goat anti-mouse antibody (Jackson ImmunoResearch) using ECL Plus™ (GE Healthcare).

[2] = molecular target: T2, antigen bound by the GC4 antibody on GBM tumor sphere cells (target antigen not determined); assay: FACS on GBM tumor sphere cells at RT, MFI fitted (apparent dissociation constant)
T2 construct: also called GBM tumor spheres; GBM sphere cells
Method: FIG. 7A depicts the production of recombinant GC4 IgG. H: heavy chain. L: light chain. MW: molecular weight. […] Ctr: a non-binding human IgG1. […] FACS analysis was performed to determine binding of GC4 IgG1 (1 μg/ml) in the presence of the parental GC4 or four other scFvs (50 μg/ml each). Binding was detected by fluorescently labeled anti-human IgG antibody. Normalized mean fluorescence intensities were used to compare binding results. Error bars indicate standard deviations of duplicated experiments. *, P<0.05. […] MFI values were fitted using GraphPad. FIG. 7E depicts the binding constant of GC4 scFv to GBM tumor spheres. […] MFI values were fitted using GraphPad.
Affinity measurement: Varying concentrations of GC4 IgG1s were incubated with 10⁵ GBM cells at RT for 1 h in PBS containing 0.25% BSA. Bound IgG1s were detected by PE-conjugated goat anti-human antibody (Jackson ImmunoResearch) following incubation at RT for 30 min. Apparent dissociation constant was determined by FACS with mean fluorescence intensity (MFI) data fitted using GraphPad Prism (GraphPad Software). The apparent dissociation constant of GC4 scFv was measured similarly except that bound scFvs were detected by mouse anti-hexahistidine antibody (AbD Serotec/MorphoSys) followed by PE-conjugated goat anti-mouse antibody (Jackson ImmunoResearch).

CD133 [3] = molecular target: T1, CD133; assay: FACS, biotin-labelled GC4 scFv on Caco2 cells (CD133-high by paragraph 182); '-' means lack of significant binding
Method: For Table 1-6, biotin-labeled GC4 scFvs were tested for binding to a panel of human cell lines (all were tumor lines, except for BPH-1) by FACS. “+” indicates binding and “-” indicated lack of significant binding. Du-145 cells were derived from brain metastasis of prostate tumor.

Binder	binding result (CD133 [1])	Kd [2] [nM]	binding result (CD133 [3])
B1	no binding		
B2	no binding		
B3		222	no binding
B4	no binding		
